Experimental data taken from patent US20260284216 (published 2026).
Where a chain is given by its changes, count along the chain named. Like-named read-outs stand apart in the source and are kept apart here. Each block holds one binder with its values, some of them ahead of it.

What was measured:
Assay in all cases: BLI
Trop2 = target: T1, Trop2 (human, UniProt P09758)
T1 chain: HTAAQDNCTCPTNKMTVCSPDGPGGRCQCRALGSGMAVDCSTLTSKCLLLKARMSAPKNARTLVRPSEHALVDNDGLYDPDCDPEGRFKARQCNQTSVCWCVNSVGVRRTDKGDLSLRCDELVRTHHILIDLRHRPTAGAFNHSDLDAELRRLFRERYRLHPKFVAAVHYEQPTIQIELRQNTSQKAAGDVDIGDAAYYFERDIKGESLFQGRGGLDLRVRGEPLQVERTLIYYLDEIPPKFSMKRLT

TNF-alpha [1] = target: TNF-alpha (human)
Chain of TNF-alpha (human) (chain, as listed by the source): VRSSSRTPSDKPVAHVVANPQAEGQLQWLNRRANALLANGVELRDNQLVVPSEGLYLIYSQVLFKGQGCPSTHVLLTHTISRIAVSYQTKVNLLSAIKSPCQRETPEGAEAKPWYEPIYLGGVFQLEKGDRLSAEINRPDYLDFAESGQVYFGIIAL

FAP [2] = target: T2, FAP (human, UniProt Q12884)
T2 sequence (Q12884 26-760): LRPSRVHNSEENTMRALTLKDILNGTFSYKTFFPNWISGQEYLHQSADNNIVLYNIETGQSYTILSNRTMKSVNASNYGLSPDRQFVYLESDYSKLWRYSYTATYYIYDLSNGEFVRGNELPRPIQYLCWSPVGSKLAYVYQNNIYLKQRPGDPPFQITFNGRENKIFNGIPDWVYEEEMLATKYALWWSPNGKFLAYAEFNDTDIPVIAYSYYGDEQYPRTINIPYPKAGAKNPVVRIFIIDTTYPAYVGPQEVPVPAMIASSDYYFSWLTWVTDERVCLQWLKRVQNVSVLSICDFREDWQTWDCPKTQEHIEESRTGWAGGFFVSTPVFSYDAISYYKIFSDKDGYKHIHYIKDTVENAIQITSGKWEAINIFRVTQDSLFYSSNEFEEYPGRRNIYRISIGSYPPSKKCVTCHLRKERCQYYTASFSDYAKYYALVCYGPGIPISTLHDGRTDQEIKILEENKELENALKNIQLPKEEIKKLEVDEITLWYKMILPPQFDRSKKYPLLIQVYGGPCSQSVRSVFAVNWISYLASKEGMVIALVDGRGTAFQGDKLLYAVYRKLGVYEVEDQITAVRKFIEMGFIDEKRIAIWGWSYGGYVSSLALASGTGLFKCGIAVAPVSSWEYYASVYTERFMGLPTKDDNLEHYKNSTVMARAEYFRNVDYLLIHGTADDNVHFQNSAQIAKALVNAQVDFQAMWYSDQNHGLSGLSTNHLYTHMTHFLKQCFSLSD

TNF-alpha [3] = target: TNF-alpha (human); remark: listed apart in the source
TNF-alpha [4] = target: TNF-alpha (human); remark: listed apart in the source
FAP [5] = target: T2, FAP; remark: listed apart in the source

Kd (Trop2): 101 nM
Kd (TNF-alpha [1]): 16.5 nM
B1: TN01 (antibody, V domains shown)
VH: EVQLVESGGGLVQPGGSLRLSCAASGYVFTDYGMNWVRQAPGKGLEWMGWINTAYGSPDYADSVKGRFTFSLDTSKSTAYLQMNSLRAEDTAVYYCARGYRYYAMDYWGQGTLVTVSS
VL: DIQMTQSPSSLSASVGDRVTITCKASQNVGTNVAWYQQKPGKAPKALIYSASFLYSGVPYRFSGSGSGTDFTLTISSLQPEDFATYYCQQVGDYPLTFGQGTKVEIKR

Kd (FAP [2]): 2.19 nM
Kd (TNF-alpha [3]): 25.7 nM
Kd (TNF-alpha [4]): 20.5 nM
Kd (FAP [5]): 13.1 nM
B2: FN15 (antibody, V domains shown)
VH: B1 VH with A54D, Y55N, S57T, D59Y, Y102S
VL: B1 VL with N28Y, V29T, G30Y, T31N, N32A, V91S, G92Y, D93G, P95L, L96V
